Bridge positions count the residues as written; N and C are the ends. Square brackets hold non-standard residues; d marks the D form. R8 = C=CCCCCCC[C@@](C)(N)C(=O)O; S5 = C=CCCC[C@](C)(N)C(=O)O

Test [1] has as its target T1, Beclin 1 coiled coil domain (human Beclin 1, residues 176-268) (human), Q14457. Kind of test: ITC, peptide titrated into Beclin 1 coiled coil domain, 25 C, one-site model.
Test [2] deals with T1, Beclin 1 coiled coil domain (human …). Put plainly: ITC, compared with Tat-SP4. In general terms: In ITC the heat of successive injections is recorded.

T1 sequence (Q14457 176-268 limits assumed): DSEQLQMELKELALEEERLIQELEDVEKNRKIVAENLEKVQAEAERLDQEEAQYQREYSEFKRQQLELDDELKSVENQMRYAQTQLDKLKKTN

B1: i7-01s-54 (Ac-[Tat]-ALIQ(R8)[…](S5)RKR-NH2) (peptide)
peptide: Ac-YGRKKRRQRRRALIQ[R8]QEDVEK[S5]RKR-NH2
modifications: staple 16-23
SMILES: CC[C@H](C)[C@H](NC(=O)[C@H](CC(C)C)NC(=O)[C@H](C)NC(=O)[C@H](CCCNC(=N)N)NC(=O)[C@H](CCCNC(=N)N)NC(=O)[C@H](CCCNC(=N)N)NC(=O)[C@H](CCC(N)=O)NC(=O)[C@H](CCCNC(=N)N)NC(=O)[C@H](CCCNC(=N)N)NC(=O)[C@H](CCCCN)NC(=O)[C@H](CCCCN)NC(=O)[C@H](CCCNC(=N)N)NC(=O)CNC(=O)[C@H](Cc1ccc(O)cc1)NC(C)=O)C(=O)N[C@@H](CCC(N)=O)C(=O)N[C@]1(C)CCCCCCC=CCCC[C@@](C)(C(=O)N[C@@H](CCCNC(=N)N)C(=O)N[C@@H](CCCCN)C(=O)N[C@@H](CCCNC(=N)N)C(N)=O)NC(=O)[C@H](CCCCN)NC(=O)[C@H](CCC(=O)O)NC(=O)[C@H](C(C)C)NC(=O)[C@H](CC(=O)O)NC(=O)[C@H](CCC(=O)O)NC(=O)[C@H](CCC(N)=O)NC1=O
By Kd is commonly meant the constant that tells how readily two partners part at equilibrium. A high value points to a looser complex. For B1, the Kd in test [1] was 311 µM.

B2: i7-01s-31 (Ac-[Tat]-VLFN(R8)[…](S5)RKV-NH2) (peptide)
peptide: Ac-YGRKKRRQRRRVLFN[R8]LVDVIK[S5]RKV-NH2
modifications: staple 16-23
SMILES: CC[C@H](C)[C@@H]1NC(=O)[C@H](C(C)C)NC(=O)[C@H](CC(=O)O)NC(=O)[C@H](C(C)C)NC(=O)[C@H](CC(C)C)NC(=O)[C@](C)(NC(=O)[C@H](CC(N)=O)NC(=O)[C@H](Cc2ccccc2)NC(=O)[C@H](CC(C)C)NC(=O)[C@@H](NC(=O)[C@H](CCCNC(=N)N)NC(=O)[C@H](CCCNC(=N)N)NC(=O)[C@H](CCCNC(=N)N)NC(=O)[C@H](CCC(N)=O)NC(=O)[C@H](CCCNC(=N)N)NC(=O)[C@H](CCCNC(=N)N)NC(=O)[C@H](CCCCN)NC(=O)[C@H](CCCCN)NC(=O)[C@H](CCCNC(=N)N)NC(=O)CNC(=O)[C@H](Cc2ccc(O)cc2)NC(C)=O)C(C)C)CCCCCCC=CCCC[C@@](C)(C(=O)N[C@@H](CCCNC(=N)N)C(=O)N[C@@H](CCCCN)C(=O)N[C@H](C(N)=O)C(C)C)NC(=O)[C@H](CCCCN)NC1=O
Turning to B2, the fold stronger binding affinity than Tat-SP4 in test [2] came out at 10 fold. The molecule further displayed a dissociation constant (Kd) in test [1] of 0.33 µM.

The record behind these values is patent US20240190920A1, “BECLIN 1-TARGETED STAPLED PEPTIDE AND PHARMACEUTICAL COMPOSITION” (Shenzhen Research Institute of the Hong Kong Polytechnic …, priority 2021, published 2024).
